The text below walks through data of patent publication US20230399394A1 (SUNSHINE GUOJIAN PHARMACEUTICAL SHANGHAI, published 2023).

One assay has as its target T1, Human IL-33-his (human, UniProt O95760 112-270, biotinylated with EZ-Link NHS-Biotin where used as IL-33-his-biotin).
T1 construct: Used plain (SPR, cell assays) and biotinylated (ELISA); also called IL-33-his-biotin
T1 sequence: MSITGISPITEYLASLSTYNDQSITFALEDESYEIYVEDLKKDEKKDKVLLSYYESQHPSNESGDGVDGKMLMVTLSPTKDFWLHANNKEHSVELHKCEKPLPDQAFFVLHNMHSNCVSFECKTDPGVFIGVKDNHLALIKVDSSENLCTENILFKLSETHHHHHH
As to the kind of experiment: competition ELISA, antibody mixed with IL-33-his-biotin, ST2 on plate; competitor ST2. On the procedure: ST2 is the only receptor for IL-33 that has been discovered so far. As a cytokine, IL-33 exerts its physiological function depending on ST2 signaling pathway, and the blocking activity of antibody can reflect the neutralizing activity thereof. The specific method was as follows: the plate was coated with 2 μg/ml ST2 PBS solution at 4° C. overnight; the plate was washed with PBST for 3 times, then the plated was blocked with 5% skim milk powder at 37° C. for 2 hours; the plate was washed with PBST for 3 times for later use. 20 ng/ml IL-33-his-biotin antigen diluted by 1% BSA was mixed with antibodies to be tested diluted by gradient with 1% BSA at 1:1 equal volume and incubated at 37° C. for […]. The mixture was added to a pre-coated ST2 plate and incubated at 37° C. for 1 h. The plate was washed with PBST for 3 times. HRP-labeled streptavidin secondary antibody was added at 1:8000 and incubated at 37° C. for 0.5 hours. After washing the plate with PBST for 3 times, the plate was patted on the absorbent paper to remove residual droplets as far as possible. 100 μl TMB was added to each well, and the plate was placed at room temperature (20±5° C.) for 5 minutes away from light; 50 μl 2M H₂SO₄ terminating solution was added to each well to terminate the substrate reaction. OD values were read at 450 nm on the microplate reader.
(In general: In an ELISA, binding on a coated surface is turned into a signal by an enzyme label.)

For assay [1], the target named is T2, IL-33 mutant protein E62A (human, UniProt O95760 112-270).
T2 construct: Prokaryotic expression
T2 chain: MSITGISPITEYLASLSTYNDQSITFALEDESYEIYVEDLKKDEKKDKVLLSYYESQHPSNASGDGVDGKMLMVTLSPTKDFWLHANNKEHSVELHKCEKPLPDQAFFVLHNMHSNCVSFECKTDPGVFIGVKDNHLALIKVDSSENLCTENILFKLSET
As to the kind of experiment: ELISA as Example 9; row E62A against WT-3. On the procedure: (§1) SA protein was diluted to 2 μg/mL to coat ELISA plate at 100 μL/well overnight at 4° C. The plate was washed with PBST (PBS containing 0.05% Tween20) for 3 times, and blocked with 2% BSA prepared in PBS at 200 μL/well, at room temperature for 2 h. After the plate was washed twice with PBST, IL-33-his-biotin protein was diluted to 1 μg/mL with 1% BSA prepared in PBST, and was added to ELISA plate at 100 μL/well. The plate was incubated at room temperature for 1 h, and each monoclonal antibody was diluted with 1% BSA prepared in PBST in a 3-fold gradient. The highest concentration of antibody was 10 μg/mL, and the antibody was diluted for 12 gradients. Each diluted monoclonal antibody was added to ELISA wells with 100 μL/well, and the plate was incubated at room temperature for 1 h. Each sample was added to duplicate wells in parallel. The plate was washed with PBST for 3 times, and HRP-anti human IgG Fc secondary antibody prepared with PBST was diluted at an appropriate ratio, and was added to ELISA wells at 100 μL/well. […] Each reaction solution was shaken uniformly and OD450 nm was read on a microplate reader. The data was analyzed and EC₅₀ was calculated.
(§2) Subsequently, according to the experimental method of Example 9, the affinity of the above mutant proteins to 874F7-Hu1 was determined, and IL-33 proteins (WT-1, WT-2, WT-3, and WT-4) without any mutation were set as controls.

Assay [2] concerns the target T3, IL-33 mutant protein Q57A (human, UniProt O95760 112-270).
T3 construct: Prokaryotic expression
T3 chain: T2 chain with Q57A, A62E
As to the kind of experiment: ELISA as Example 9; row Q57A against WT-1. On the procedure:
as §1, §2

In assay [3] the target is T4, IL-33 mutant protein E44A (human, UniProt O95760 112-270).
T4 construct: Prokaryotic expression
T4 chain: T2 chain with E44A, A62E
As to the kind of experiment: ELISA as Example 9; row E44A. On the procedure: as §1, §2

For assay [4], the target named is T5, IL-33 mutant protein D68A (human, UniProt O95760 112-270).
T5 construct: Prokaryotic expression
T5 chain: T2 chain with A62E, D68A
As to the kind of experiment: ELISA as Example 9; row D68A. The method, then: as §1, §2

Assay [5] concerns the target T6, IL-33 mutant protein S52A (human, UniProt O95760 112-270).
T6 construct: Prokaryotic expression
T6 chain: T2 chain with S52A, A62E
As to the kind of experiment: ELISA as Example 9; row S52A. On the procedure: as §1, §2

Assay [6] deals with T7, IL-33 mutant protein V67A (human, UniProt O95760 112-270).
T7 construct: Prokaryotic expression
T7 chain: T2 chain with A62E, V67A
As to the kind of experiment: ELISA as Example 9; row V67A against WT-3. On the procedure:
as §1, §2

Where a chain is given by its changes, count along the chain named.

B1: 874F7 (antibody, V domains shown)
VH: QVQLKESGPGLVAPSHSLSITCNVSGFSLSKYGVHWIRQIPGRGLDWLGVLRAGGSTGYNSALMSRLSISKDSSKSQVFLKMNDLRTDDTAVYFCVRDHYYYSSYGGFVYWGQGTLVTVSA
VL: DIQMTQSPASQSASLGESVTITCLASQTIGAWLAWYRQQPGKSPQLLIYAATRLADGVPSRFSGSGSGTEFSFKINNLQAEDFVSYYCQQLDSSPYTFGGGTRLEM
notes: Murine hybridoma antibody purified on Protein G; also called murine antibody 874F7
B1 registered an IC50 with Human IL-33-his of 900 pM.

B2: 874F7-Hu1 (antibody, human IgG4 S228P, kappa)
heavy: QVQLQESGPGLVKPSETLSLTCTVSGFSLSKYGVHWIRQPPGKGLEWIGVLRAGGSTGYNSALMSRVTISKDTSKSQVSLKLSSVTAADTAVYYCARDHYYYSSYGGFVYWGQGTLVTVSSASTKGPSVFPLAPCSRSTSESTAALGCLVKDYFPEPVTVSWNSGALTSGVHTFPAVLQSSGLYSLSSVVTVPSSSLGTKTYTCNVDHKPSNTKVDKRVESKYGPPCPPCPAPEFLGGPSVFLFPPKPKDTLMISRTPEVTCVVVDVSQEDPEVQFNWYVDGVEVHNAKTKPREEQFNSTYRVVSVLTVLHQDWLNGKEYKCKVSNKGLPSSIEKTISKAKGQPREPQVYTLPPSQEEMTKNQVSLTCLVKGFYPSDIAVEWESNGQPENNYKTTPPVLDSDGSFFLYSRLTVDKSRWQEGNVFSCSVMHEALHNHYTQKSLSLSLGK
light: DIQMTQSPSSVSASVGDRVTITCLASQTIGAWLAWYQQKPGKSPKLLIYAATRLADGVPSRFSGSGSGTDFTLTISSLQPEDFATYYCQQLDSSPYTFGQGTKVEIKRTVAAPSVFIFPPSDEQLKSGTASVVCLLNNFYPREAKVQWKVDNALQSGNSQESVTEQDSKDSTYSLSSTLTLSKADYEKHKVYACEVTHQGLSSPVTKSFNRGEC
notes: also called 874F7-Hul; humanized antibody 874F7-Hu1
Turning to B2, the Affinity decline ratio in assay [1] worked out at 0.8 fold; in assay [2], 0.5 fold; in assay [6], 0.6 fold. Besides, the EC50 in assay [3] came to 130 pM; in assay [4], 220 pM; in assay [5], 1960 pM.

The IC50 is the midpoint of a concentration-inhibition curve. As a reminder, the EC50 is the concentration that produces a half-maximal response. Higher therefore signals weaker potency.
